# B1: dephosphorylated synapsin I (natural protein)
# chain: not shown
# B2: synapsin I phosphorylated on all three sites (natural protein)
# chain: not shown
# modifications: phosphorylated on all three sites (sites 1, 2 and 3); 2.6 mol phosphate/mol synapsin I
# Biological target: F-actin (rabbit skeletal muscle actin filaments) (rabbit, UniProt P68135 1-377)
# Assay: co-sedimentation
row,Kd,Binder
1,2000 nM,B1
2,1800 nM,B2
